Data from patent US20240002497A1 (Merck Sharp & Dohme, published 2024).

Legend:
Assay in all cases: binding FACS, CHO FlpIn cells
[1] = molecular target: T1, huNav1.7α + β1-β2-β3 (human Nav1.7α co-expressed with human Navβ1, Navβ2 and Navβ3 on cells) (human)
T1 construct: also called huNav1.7-beta1-beta2-beta3; CHO FlpIn huNav1.7α + β1-β2-β3
Procedure: (§1) Binding of the ISVDs to cell-expressed Nav1.7α was detected via murine anti-Flag (Sigma, catalog #F1804). Briefly, cells were resuspended in FACS buffer (PBS, 10% FBS, NaN₃) and transferred to a 96-well V-bottom plate at 1×10^5 cells/well. Purified FLAG3-tagged ISVD was diluted in FACS buffer and added to the cells for 30 minutes at 4° C. […] Prior to the read-out, the samples were resuspended in 1 μg/mL propidium iodide (Sigma, catalog #P4170) to exclude dead cells. Between each step, the cells were centrifuged for 5 minutes at 200 grams and washed with 100 μL/well FACS buffer.

rhNav1.7α + β1-β2-β3 = molecular target: T2, rhNav1.7α + β1-β2-β3 (rhesus monkey)
T2 construct: also called rhNav1.7-beta1-beta2-beta3; rhesus Nav1.7α
Procedure: as §1

huNav1.7α + β1-β2-β3 = molecular target: T3, huNav1.7α + β1-β2-β3 (human, UniProt Q15858 1-1988; A5A6L6 19-218; O60939 30-215; Q2KI11 23-215)
T3 construct: Cell line (CHO FlpIn, HEK FlpIn, transient HEK293T) is named under assay; also called huNav1.7-beta1-beta2-beta3; human Nav1.7α with Navβ1, Navβ2 and Navβ3
Procedure: as §1

| Bmax [1] | EC50 [1] | Bmax (rhNav1.7α + β1-β2-β3) | EC50 (rhNav1.7α + β1-β2-β3) | Bmax (huNav1.7α + β1-β2-β3) | EC50 (huNav1.7α + β1-β2-β3) | binding result (rhNav1.7α + β1-β2-β3) | Binder |
| --- | --- | --- | --- | --- | --- | --- | --- |
| 91% | 8.2 nM |  |  |  |  |  | F010302316 (VHH, also called F0103387G04(L11V, A12V, K33R, R39Q, S50Y, S56D, T60A, G73A, W78V, S79Y, T83R, V89L, N93R, D99R, N100cI)-FLAG3-HIS6) VHH: EVQLVESGGGVVQPGGSLRLSCAASGPVFNINRMAWYRQAPGKQRELVAYVTPTGDISYADSVKGRFTISRDASKRVYLQMNSLRPEDTALYYCRALLQPRSYSITRTYWGQGTLVTVSS |
| 89% | 11 nM |  |  |  |  |  | F010302318 (VHH, also called F0103387G04(L11V, A12V, K33R, R39Q, S50Y, S56D, T60A, W78V, S79Y, T83R, V89L, N93R, S100R, N100cI)) VHH: EVQLVESGGGVVQPGGSLRLSCAASGPVFNINRMAWYRQAPGKQRELVAYVTPTGDISYADSVKGRFTISRDGSKRVYLQMNSLRPEDTALYYCRALLQPDRYSITRTYWGQGTLVTVSS |
|  |  | 84% | 18 nM | 100% | 6.4 nM |  | F010302343 (VHH) VHH: EVQLVESGGGVVQPGGSLRLSCAASSRQFIRDVFTGWYRQAPGKQRELVARIYESGNTQYADSAKGRFTISRDNAKKTVYLQMNSLRPEDTALYYCLFSGTISTGREYRSGDYWGQGTLVTVSS |
|  |  | 78% | 13 nM | 100% | 4.3 nM |  | F010302344 (VHH) VHH: EVQLVESGGGVVQPGGSLRLSCAASHRQFIRDVFTGWYRQAPGKQRELVARIYNEGNTQYADSAKGRFTISRDNAKKTVYLQMNSLRPEDTALYYCLFSGTISTGREYRSGDYWGQGTLVTVSS |
|  |  | 99% | 12 nM | 100% | 5 nM |  | F010302346 (VHH) VHH: EVQLVESGGGVVQPGGSLRLSCAASHRAFIRDVFTGWYRQAPGKQRELVARIYESGNTQYADSAKGRFTISRDNAKKTVYLQMNSLRPEDTALYYCLFSGTISTGREYRSGDYWGQGTLVTVSS |
|  |  | 100% | 9.6 nM | 100% | 4.6 nM |  | F010302347 (VHH) VHH: EVQLVESGGGVVQPGGSLRLSCAASHRAFIRDVFTGWYRQAPGKQRELVARIYEGGNTQYADSAKGRFTISRDNAKKTVYLQMNSLRPEDTALYYCLFSGTISTGREYRSGDYWGQGTLVTVSS |
|  |  | 95% | 14 nM | 100% | 6.7 nM |  | F010302348 (VHH) VHH: EVQLVESGGGVVQPGGSLRLSCAASHRAFIRDLFTGWYRQAPGKQRELVARIYESGNTNYADSAKGRFTISRDNAKKTVYLQMNSLRPEDTALYYCLFSGTISTGREYRSGDYWGQGTLVTVSS |
|  |  | 46% | 15 nM | 100% | 3.5 nM |  | F010302350 (VHH) VHH: EVQLVESGGGVVQPGGSLRLSCAASSRQFIRDVFTGWYRRAPGKQRELVARIYNEGNTQYADSVKGRFTISRDNAKKTVYLQMNSLRPEDTALYYCLFSGTISTGREYRSGDYWGQGTLVTVSS |
|  |  | 72% | 15 nM | 100% | 5.6 nM |  | F010302351 (VHH) VHH: EVQLVESGGGVVQPGGSLRLSCAASSRQFIRDVFTGWYRRAPGKQRELVARIYESGNTQYADSVKGRFTISRDNAKKTVYLQMNSLRPEDTALYYCLFSGTISTGREYRSGDYWGQGTLVTVSS |
|  |  | 60% | 11 nM | 100% | 3.6 nM |  | F010302352 (VHH) VHH: EVQLVESGGGVVQPGGSLRLSCAASHRQFIRDVFTGWYRRAPGKQRELVARIYNEGNTQYADSVKGRFTISRDNAKKTVYLQMNSLRPEDTALYYCLFSGTISTGREYRSGDYWGQGTLVTVSS |
|  |  | 93% | 7.9 nM | 100% | 4.2 nM |  | F010302353 (VHH) VHH: EVQLVESGGGVVQPGGSLRLSCAASHRQFIRDVFTGWYRRAPGKQRELVARIYEGGNTQYADSVKGRFTISRDNAKKTVYLQMNSLRPEDTALYYCLFSGTISTGREYRSGDYWGQGTLVTVSS |
|  |  | 96% | 7.9 nM | 100% | 4.2 nM |  | F010302354 (VHH) VHH: EVQLVESGGGVVQPGGSLRLSCAASHRAFIRDVFTGWYRRAPGKQRELVARIYESGNTQYADSVKGRFTISRDNAKKTVYLQMNSLRPEDTALYYCLFSGTISTGREYRSGDYWGQGTLVTVSS |
|  |  | 97% | 6.8 nM | 100% | 3.5 nM |  | F010302355 (VHH) VHH: EVQLVESGGGVVQPGGSLRLSCAASHRAFIRDVFTGWYRRAPGKQRELVARIYEGGNTQYADSVKGRFTISRDNAKKTVYLQMNSLRPEDTALYYCLFSGTISTGREYRSGDYWGQGTLVTVSS |
|  |  | 81% | 12 nM | 100% | 5.3 nM |  | F010302356 (VHH) VHH: EVQLVESGGGVVQPGGSLRLSCAASHRAFIRDLFTGWYRRAPGKQRELVARIYESGNTNYADSVKGRFTISRDNAKKTVYLQMNSLRPEDTALYYCLFSGTISTGREYRSGDYWGQGTLVTVSS |
|  |  |  |  | 100% | 5.3 nM | no binding | F010302357 (VHH) VHH: EVQLVESGGGVVQPGGSLRLSCAASSRQFIRDVFTGWYRQAPGKQRELVARIYNEGNTNYADSVKGRFTISRDNAKKTVYLQMNSLRPEDTALYYCLFSGTISTGREYRSGDYWGQGTLVTVSS |
|  |  | 37% | 37 nM | 100% | 4.5 nM |  | F010302358 (VHH) VHH: EVQLVESGGGVVQPGGSLRLSCAASSRQFIRDVFTGWYRQAPGKQRELVARIYNEGNTQYADSVKGRFTISRDNAKKTVYLQMNSLRPEDTALYYCLFSGTISTGREYRSGDYWGQGTLVTVSS |
|  |  | 66% | 24 nM | 100% | 6.4 nM |  | F010302359 (VHH) VHH: EVQLVESGGGVVQPGGSLRLSCAASSRQFIRDVFTGWYRQAPGKQRELVARIYESGNTQYADSVKGRFTISRDNAKKTVYLQMNSLRPEDTALYYCLFSGTISTGREYRSGDYWGQGTLVTVSS |
|  |  | 58% | 15 nM | 100% | 3.5 nM |  | F010302360 (VHH) VHH: EVQLVESGGGVVQPGGSLRLSCAASHRQFIRDVFTGWYRQAPGKQRELVARIYNEGNTQYADSVKGRFTISRDNAKKTVYLQMNSLRPEDTALYYCLFSGTISTGREYRSGDYWGQGTLVTVSS |
|  |  | 92% | 11 nM | 100% | 4.8 nM |  | F010302361 (VHH) VHH: EVQLVESGGGVVQPGGSLRLSCAASHRQFIRDVFTGWYRQAPGKQRELVARIYEGGNTQYADSVKGRFTISRDNAKKTVYLQMNSLRPEDTALYYCLFSGTISTGREYRSGDYWGQGTLVTVSS |
|  |  | 89% | 14 nM | 100% | 5.4 nM |  | F010302362 (VHH) VHH: EVQLVESGGGVVQPGGSLRLSCAASHRAFIRDVFTGWYRQAPGKQRELVARIYESGNTQYADSVKGRFTISRDNAKKTVYLQMNSLRPEDTALYYCLFSGTISTGREYRSGDYWGQGTLVTVSS |
|  |  | 96% | 9.3 nM | 100% | 4.2 nM |  | F010302363 (VHH) VHH: EVQLVESGGGVVQPGGSLRLSCAASHRAFIRDVFTGWYRQAPGKQRELVARIYEGGNTQYADSVKGRFTISRDNAKKTVYLQMNSLRPEDTALYYCLFSGTISTGREYRSGDYWGQGTLVTVSS |
|  |  | 74% | 17 nM | 100% | 7.2 nM |  | F010302364 (VHH) VHH: EVQLVESGGGVVQPGGSLRLSCAASHRAFIRDLFTGWYRQAPGKQRELVARIYESGNTNYADSVKGRFTISRDNAKKTVYLQMNSLRPEDTALYYCLFSGTISTGREYRSGDYWGQGTLVTVSS |
|  |  |  |  | 100% | 3.1 nM | no binding | F010302365 (VHH) VHH: EVQLVESGGGVVQPGGSLRLSCAASSRAFIRDVFTGWYRRAPGKQRELVARIYNGGNTNYADSAKGRFTISRDNAKKTVYLQMNSLRPEDTALYYCLFSGTISTGREYRSGDYWGQGTLVTVSS |
|  |  |  |  | 100% | 3.7 nM | no binding | F010302366 (VHH) VHH: EVQLVESGGGVVQPGGSLRLSCAASSRAFIRDVFTGWYRQAPGKQRELVARIYNGGNTNYADSAKGRFTISRDNAKKTVYLQMNSLRPEDTALYYCLFSGTISTGREYRSGDYWGQGTLVTVSS |
|  |  |  |  | 100% | 3.9 nM | no binding | F010302368 (VHH) VHH: EVQLVESGGGVVQPGGSLRLSCAASSRAFIRDVFTGWYRQAPGKQRELVARIYNGGNTNYADSVKGRFTISRDNAKKTVYLQMNSLRPEDTALYYCLFSGTISTGREYRSGDYWGQGTLVTVSS |
